Measured values published in article PMC7305299, “Nonsense-mediated mRNA decay factor UPF1 promotes aggresome formation” (Nature Communications, 2020).

Biological target: T1, FLAG-UPF1-HP (UniProt Q92900-2 1-1118, G495R | G497E, hyperphosphorylated in cells (detected with an anti-phospho-(S/T)Q antibody); sites not stated)
T1 construct: UPF1 with G495R and G497E in the helicase domain; also called FLAG-UPF1-(G495R/G497E); hyperphosphorylated UPF1; source: HEK293T, transiently transfected (pcDNA3-FLAG-UPF1-HP), in RNase A-treated cell extract
T1 sequence (looked up): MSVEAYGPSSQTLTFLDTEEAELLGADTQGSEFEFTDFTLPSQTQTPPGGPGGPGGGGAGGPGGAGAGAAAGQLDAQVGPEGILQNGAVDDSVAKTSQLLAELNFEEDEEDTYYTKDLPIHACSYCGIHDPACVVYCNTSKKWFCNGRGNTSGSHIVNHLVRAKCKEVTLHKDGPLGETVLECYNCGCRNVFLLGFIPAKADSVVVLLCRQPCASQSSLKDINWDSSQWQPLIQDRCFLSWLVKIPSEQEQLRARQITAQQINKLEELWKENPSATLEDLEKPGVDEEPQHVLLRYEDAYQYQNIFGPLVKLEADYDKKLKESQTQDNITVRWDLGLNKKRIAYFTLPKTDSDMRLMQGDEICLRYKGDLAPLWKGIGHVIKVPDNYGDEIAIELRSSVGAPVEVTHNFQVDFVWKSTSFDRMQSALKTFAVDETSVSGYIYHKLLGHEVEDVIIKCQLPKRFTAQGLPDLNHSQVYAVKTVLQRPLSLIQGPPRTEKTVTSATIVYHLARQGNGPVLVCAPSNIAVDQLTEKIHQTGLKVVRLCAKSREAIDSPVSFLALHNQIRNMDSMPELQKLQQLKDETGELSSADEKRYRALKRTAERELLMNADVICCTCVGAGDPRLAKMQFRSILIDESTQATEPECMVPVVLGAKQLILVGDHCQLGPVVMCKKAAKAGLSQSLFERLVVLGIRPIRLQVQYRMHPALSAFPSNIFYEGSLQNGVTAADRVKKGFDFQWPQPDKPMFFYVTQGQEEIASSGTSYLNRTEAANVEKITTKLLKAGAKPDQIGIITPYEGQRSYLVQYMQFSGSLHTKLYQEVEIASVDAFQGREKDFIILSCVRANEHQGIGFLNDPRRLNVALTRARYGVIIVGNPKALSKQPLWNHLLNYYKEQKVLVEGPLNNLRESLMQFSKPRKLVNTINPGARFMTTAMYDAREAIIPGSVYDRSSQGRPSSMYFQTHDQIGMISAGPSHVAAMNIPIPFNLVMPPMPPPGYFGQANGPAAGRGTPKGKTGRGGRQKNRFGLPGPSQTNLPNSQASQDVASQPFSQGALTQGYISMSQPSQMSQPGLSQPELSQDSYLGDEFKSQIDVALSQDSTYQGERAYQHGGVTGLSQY
Test: co-IP; anti-FLAG IP of FLAG-UPF1 (WT or a variant) from RNase A-treated extracts of transiently transfected HEK293T cells; cells treated with DMSO or MG132 for 12 h (Fig. 5a,b), for polypeptidyl-puro with MG132 12 h and puromycin 1 h (Fig. 5d), with or without eEF1A1 siRNA (Fig. 5e); NET-2 buffer, 4 °C; western blotting
Conditions: partners not purified

B1: DCP1A, cellular (natural protein, human (endogenous in HEK293T), UniProt Q9NPI6 1-582, looked up)
chain: MEALSRAGQEMSLAALKQHDPYITSIADLTGQVALYTFCPKANQWEKTDIEGTLFVYRRSASPYHGFTIVNRLNMHNLVEPVNKDLEFQLHEPFLLYRNASLSIYSIWFYDKNDCHRIAKLMADVVEEETRRSQQAARDKQSPSQANGCSDHRPIDILEMLSRAKDEYERNQMGDSNISSPGLQPSTQLSNLGSTETLEEMPSGSQDKSAPSGHKHLTVEELFGTSLPKEQPAVVGLDSEEMERLPGDASQKEPNSFLPFPFEQLGGAPQSETLGVPSAAHHSVQPEITTPVLITPASITQSNEKHAPTYTIPLSPVLSPTLPAEAPTAQVPPSLPRNSTMMQAVKTTPRQRSPLLNQPVPELSHASLIANQSPFRAPLNVTNTAGTSLPSVDLLQKLRLTPQHDQIQTQPLGKGAMVASFSPAAGQLATPESFIEPPSKTAAARVAASASLSNMVLAPLQSMQQNQDPEVFVQPKVLSSAIPVAGAPLVTATTTAVSSVLLAPSVFQQTVTRSSDLERKASSPSPLTIGTPESQRKPSIILSKSQLQDTLIHLIKNDSSFLSTLHEVYLQVLTKNKDNHNL
notes: DCP1A (component of the decapping complex), cellular protein co-immunopurified from HEK293T extracts; source: endogenous, HEK293T extract
Q: Which “fold more co-immunopurified than with UPF1-WT or UPF1-HP-12A” value does the source give for B1 here?
A: ~5 fold
